The results in this text go back to patent US20240424125A1 (Zymeworks, published 2024).

The target of assay [1] is T1, human FRα on cells (human, UniProt P15328 25-234). Put plainly: cell-based or functional assay.
Assay [2] deals with T1, human FRα on cells. Put plainly: apparent Kd, flow cytometry on HEC-1-A cells (endogenous FRα), 24 h at 4°C. How it is done:
(§1) Briefly, cells were seeded at 50,000 cells/well in V-bottom 96-well plates and treated with antibody for 24 hours at 4° C. to prevent internalization. […] Following incubation and washing, fluorescence was detected by flow cytometry on a BD LSRFortessa™ Cell Analyzer (BD Biosciences, Franklin Lake, NJ) with 1,000 minimum events collected per well. AF647/APC-A GeoMean (fluorescence signal geometric mean, proportional to anti-Human AF647 binding) in live cell population was plotted using GraphPad Prism Version 9 (GraphPad Software, San Diego, CA).

Assay [3] deals with T2, recombinant His-tagged human FRα (ACROBiosystems) (human, UniProt P15328 25-233).
T2 construct: also called hFRα; hFRα antigen; not shown: His tag
Put plainly: SPR (Biacore T200), high antigen density; end of the range tied to v30384 by Table 8.3. How it is done:
(§2) Screening of the variants for binding to hFRα antigen was conducted in two steps: capture of hFRα onto surface, followed by injection of three to five concentrations of variant. The hFRα surface was prepared on a CM5 Series S sensor chip by standard amine coupling methods as described by the manufacturer (GE Healthcare Life Science, Mississauga, ON, Canada). The immobilization of the hFRα was performed using Biacore™ T200 immobilization wizard with an amine coupling method aiming for resonance units (RUs) ranging from 5 to 200 RUs. Using multi-cycle kinetics, three to five concentrations of a two-fold dilution series of samples starting at 300 nM with a blank buffer control were injected at 50 uL/min for 180s with a 600s dissociation phase, resulting in a set of sensorgrams with a buffer blank reference. The hFRα surface was regenerated to prepare for the next injection cycle by one pulse of 10 mM glycine/HCl pH 1.5 for 30s at 30 uL/min. Blank-subtracted sensorgrams were analyzed using Biacore™ T200 Evaluation Software v3.0. The blank-subtracted sensorgrams were then fit to the 1:1 Langmuir binding model.

In assay [4] the target is T2, recombinant His-tagged human FRα …. The assay can be described thus: SPR (Biacore T200): hFRα amine-coupled to CM5 chip at medium-low antigen density, bivalent FSA injected, 1:1 Langmuir fit, mean of n=2. As to the method: (§3) CM5 Series S sensor chip, Biacore™ amine coupling kit (NHS, EDC and 1 M ethanolamine), and 10 mM sodium acetate buffers were purchased from GE Healthcare Life Science (Mississauga, ON, Canada). PBS running buffer with 0.05% Tween20 (PBST) was purchased from Teknova Inc. (Hollister, CA). Recombinant human FRα was purchased from ACRObiosystems (Newark, DE).
as §2

Assay [5] concerns the target T1, human FRα on cells. Put plainly: apparent Kd, flow cytometry on JEG-3 cells (endogenous FRα), as in Example 16. As to the method: as §1
In assay [6] the target is T2, recombinant His-tagged human FRα …. The assay can be described thus: BLI (Octet RED96) as in Example 8: antibody captured, His-tagged hFRα as analyte, mean of n=2. How it is done:
(§4) The assay buffer used was KB buffer (kinetics buffer, composed of PBS pH 7.4, 0.1% BSA, 0.02% Tween 20, 0.05% sodium azide) supplemented with 0.06% Tween 20 and in some instances also with 1% BSA. The experiment was conducted at 30° C. with a shake speed of 1000 rpm.
(§5) Data analysis was performed using Data Analysis Software 9.0 (ForteBio, Fremont CA). The reference-subtracted binding curves were globally fitted to the 1:1 interaction model to generate the binding kinetic parameters kₒₙ, koff, and the dissociation constant KD.

Assay [7] addresses T1, human FRα on cells. The assay can be described thus: apparent Kd, flow cytometry on IGROV-1 cells (endogenous FRα), as in Example 16. As to the method: as §1
Assay [8] has as its target T2, recombinant His-tagged human FRα …. Put plainly: BLI (Octet RED96): antibody on anti-human IgG Fc capture biosensor, His-tagged hFRα as analyte, 1:1 global fit, mean of n=2. As to the method: as §4, §5
The target is the same in assay [9]. The assay can be described thus: BLI (Octet RED96): antibody loaded on anti-human IgG Fc capture biosensors, His-tagged hFRα in solution. Six traces with fit lines plateau between about 0.06 and 0.36 nm during 0-400 s association and return to baseline by about 520 s. The legend prints the same globally fitted KD for all six traces (single run; the text prints only the mean of n=2). As to the method:
as §4, §5

Assay [10] shares this target. Put plainly: SPR (Biacore T200): hFRα amine-coupled to CM5 chip at high antigen density, bivalent FSA injected, 1:1 Langmuir fit, mean of n=2. As to the method:
as §3, §2

In assay [11] the target is T1, human FRα on cells. Put plainly: apparent Kd, flow cytometry on JEG-3 cells (endogenous FRα), 24 h at 4°C. How it is done: as §1
The target of assay [12] is T2, recombinant His-tagged human FRα …. Put plainly: SPR (Biacore T200): hFRα amine-coupled to CM5 chip at medium antigen density, bivalent FSA injected, 1:1 Langmuir fit, mean of n=2. As to the method:
as §3, §2

Assay [13] has the same target. Put plainly: SPR (Biacore T200), high antigen density; end of the range tied to v30399 by Table 8.3. As to the method: as §2

Residue numbers refer to the chain shown, from its start.

T2 sequence (P15328 25-233 limits assumed): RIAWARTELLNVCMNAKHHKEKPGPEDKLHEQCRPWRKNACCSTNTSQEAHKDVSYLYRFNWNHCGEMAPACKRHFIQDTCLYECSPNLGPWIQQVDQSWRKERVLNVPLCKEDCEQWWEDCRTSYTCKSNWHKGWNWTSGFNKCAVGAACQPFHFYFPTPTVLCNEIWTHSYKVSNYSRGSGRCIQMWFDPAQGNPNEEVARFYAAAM
T1 sequence (P15328 25-234 limits assumed): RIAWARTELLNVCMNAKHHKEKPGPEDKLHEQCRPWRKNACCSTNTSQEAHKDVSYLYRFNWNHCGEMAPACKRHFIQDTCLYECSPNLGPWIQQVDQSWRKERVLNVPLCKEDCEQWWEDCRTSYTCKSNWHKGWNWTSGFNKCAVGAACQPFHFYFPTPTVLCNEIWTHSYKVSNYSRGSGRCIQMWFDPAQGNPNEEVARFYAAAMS

B1: v30384 (antibody, human IgG1, kappa)
heavy 1: EVQLLESGGGLVQPGGSLRLSCAVSGFSLSSYGVSWVRQAPGKGLEWIGAVNSGGSAYYADSVKGRSTISRDNSKNTVYLQMNSLRAEDTAVYYCARSGSGYPMDYLAIWGQGTLVTVSSASTKGPSVFPLAPSSKSTSGGTAALGCLVKDYFPEPVTVSWNSGALTSGVHTFPAVLQSSGLYSLSSVVTVPSSSLGTQTYICNVNHKPSNTKVDKKVEPKSCDKTHTCPPCPAPELLGGPSVFLFPPKPKDTLMISRTPEVTCVVVDVSHEDPEVKFNWYVDGVEVHNAKTKPREEQYNSTYRVVSVLTVLHQDWLNGKEYKCKVSNKALPAPIEKTISKAKGQPREPQVYVYPPSRDELTKNQVSLTCLVKGFYPSDIAVEWESNGQPENNYKTTPPVLDSDGSFALVSKLTVDKSRWQQGNVFSCSVMHEALHNHYTQKSLSLSPG
heavy 2: not shown
light: DYQMTQSPSSVSASVGDRVTITCRASQSIGDWLAWYQQKPGKAPKLLIYEASTLASGVPSRFSGSGSGTDFTLTISSVQPEDAATYYCQQGYGRSNVDNIFGGGTKVEVKRTVAAPSVFIFPPSDEQLKSGTASVVCLLNNFYPREAKVQWKVDNALQSGNSQESVTEQDSKDSTYSLSSTLTLSKADYEKHKVYACEVTHQGLSSPVTKSFNRGEC
notes: Humanized full-size IgG1/kappa antibody with heterodimeric Fc (HetFc); also called humanized variant v30384; parental humanized
As for B1, the “fold increase in internalized fluorescence compared to farletuzumab; IGROV-1 cells, 6-hour incubation, 5 nM” value in the assay with human FRα on cells [1] amounted to 19.1 fold. In the assay with human FRα on cells [1], the “fold increase in internalized fluorescence compared to farletuzumab; IGROV-1 cells, 6-hour incubation, 25 nM” value was found to be 6.1 fold. In addition, in the assay with human FRα on cells [1], the “fold increase in internalized fluorescence compared to farletuzumab; IGROV-1 cells, 24-hour incubation, 5 nM” value was 4.7 fold. Moreover, the “fold increase in internalized fluorescence compared to farletuzumab; IGROV-1 cells, 24-hour incubation, 25 nM” value in the assay with human FRα on cells [1] stood at 3.9 fold. Also, the “fold increase in internalized fluorescence compared to mirvetuximab; IGROV-1 cells, 6-hour incubation, 5 nM” value with human FRα on cells [1] turned out to be 2.6 fold. Further, in the assay with human FRα on cells [1], the “fold increase in internalized fluorescence compared to mirvetuximab; IGROV-1 cells, 6-hour incubation, 25 nM” value was determined as 3.3 fold. Besides, the “fold increase in internalized fluorescence compared to mirvetuximab; IGROV-1 cells, 24-hour incubation, 5 nM” value with human FRα on cells [1] was determined as 1.9 fold. Further, the “fold increase in internalized fluorescence compared to mirvetuximab; IGROV-1 cells, 24-hour incubation, 25 nM” value with human FRα on cells [1] amounted to 2.1 fold. Further, the Kd is 0.07 nM with human FRα on cells [2]; 3.76 nM in assay [4]; 0.5 nM in the assay with human FRα on cells [5]; 127 nM in [6]; 1.38 nM with human FRα on cells [7]; 110 nM in assay [8]. The Kd came out at 109 nM in assay [9], 0.79 nM in [10], 0.31 nM with human FRα on cells [11] and 2.58 nM in [12]. In assay [3], the “fold lower KD in FSA compared to one-armed antibody (OAA) format” value worked out at 181 fold.

B2: v30399 (antibody, human IgG1, kappa)
heavy 1: B1 heavy 1 with L4V, S62W, V63A
heavy 2: not shown
light: B1 light
notes: Humanized IgG1/kappa, HetFc; also called 4bH4L
With B2, the Kd in [4] stood at 3.71 nM; in assay [8], 69 nM; in assay [10], 0.709 nM; in assay [12] it was 2.67 nM. The “fold lower KD in FSA compared to one-armed antibody (OAA) format” value in assay [13] is 116 fold.
